“And” between values parts separate entries of the source, which are not always exact repeats. Equal entries are not always repeated. Where no end group is shown, it is not given here.
T1: BSA-coupled polyP repeat peptide of Htt Exon1 (human, also: coupled to BSA)
T1 peptide: PPPPPPPPPPP

T2: C-terminal peptide of Htt Exon1 coated directly to the plate (not coupled to BSA) (human)
T2 peptide: PPGPAVAEEPLHRP

T3: BSA-coupled C-terminal peptide of Htt Exon1 (the 14 C-terminal amino acids) (human, also: coupled to BSA)
T3 peptide: PPGPAVAEEPLHRP

B1: NI-302.63F3 (antibody, V domains shown)
VH: QVQLVQSGSAFKKPGTSVKVSCKASGYTFETRSMNWVRQAPGQGLEYMGWINTNTGNRTYVQAFRGRFVFSLDTSVSTAYLQISNLKTEDTAVYYCARGAGGGYWFDSWGQGTLVTVSS
VL: DIQMTQSPDSLAVSLGERATINCKSNQSLFYSSNNNNYLAWYQHKSGQPPKLLVYWGSTRESGVPDRFSGSGSGTDFTLTISSLQAEDVAIYYCHQYYHNPYTFGQGTKLEIK
B2: NI-302.15F9 (antibody, V domains shown)
VH: EVQLVESGGGLVTPGGSLRLSCEASGFLFKNSSMNWVRQTPGKGLEWVSSIDTSATNYKYYADSVKGRFTISRDDATNSLYLQMNSLRADDTATYYCARGYYTPRDFDYWGQGTLVTVSS
VL: DVVMTQSPQTLSVSLGQAASISCRSSQSLLYRDNNTYLNWFHQRPGQSPRRLIYRASDRDSGVPDRFSGGGSGTDFTLKISGVEAEDVGTYYCMQGTHWPRTFGQGTKVEIK
B3: NI-302.7D8 (antibody, V domains shown)
VH: QVQLVQSGSELKKPGASVKVSCKASGYNFNNYAINWLRQAPGQGLEWMGWINTITGHPTYAQGFKGRFVFSLDTSVSTAYLQISSLKPEDTAVYYCARTYSNYGEFDYWGQGTLVTVSS
VL: QSALTQPASVSGSRGQSITISCTGTSSDVGSYNLVSWYQQYPGKAPKLIIHEGSERPSGVSNRFSGSKSGNTASLTISGLQAEDEADYYCCSYAGTTTFVLFGGGTKLTVL
B4: NI-302.33C11 (antibody, V domains shown)
VH: EVQLVESGGGVVQPGNSLRLSCAASGFRFSDFGMHWVRQAPGKGLEWLALIWYDGGYKYYADSVKGRFTISRDNSKNTMFLQMNSLRAEDTAVYYCATHLEYCSRTTCYLGHWGQGTLVTVSS
VL: DIQLTQSPSFLSASVGDTVTFTCRASQGISDYLAWFQQKPGIAPKLLIYAASTLQTGVPSRFSGSGSGTEFTLTIRSLQSEDFGTYYCQQLKTYPYTFGQGTKVEIK
B5: NI-302.35C1 (antibody, V domains shown)
VH: EVQLVESGGNLVQPGGSLRLSCTASGFTFSITALSWVRQAPEKGPQWVSAITGNAYGTYYADSVKGRFTISRDNAKNTLYLQMNGLRAEDTAIYYCVKGIASDSSGYSAFWGPGTLVTVSS
VL: EIVLTQSPATLSLSPGERATLSCRASQSVDNQFAWYQQKPGQAPRLLIYDASRRAPGIPDRFSGSGSGTDFTLTISSLEPEDFAIYYCQHRYTWLYTFGQGTRLEIK

Legend:
[1] = molecular target: all four species: aggregated HD49, aggregated HD21, soluble GST-HD49 and GST-HD21 Htt Exon 1 proteins; test: direct ELISA, coated at 5 µg/ml
[2] = molecular target: HD49: huntingtin Exon1 protein with 49 polyQ repeats, GST tag cleaved off, aggregation reaction (human, UniProt P42858); test: direct ELISA, coated at 5 µg/ml
Description: (§1) To determine the half maximal effective concentration (EC₅₀) of recombinant human-derived HTT antibody […] to soluble and aggregated huntingtin Exon1 proteins with 21 or 49 polyQ repeats direct ELISA was performed. In brief, 96 well microplates (Corning) were coated with either GST-HD21, GST-HD49 or aggregated HD21 or HD49 at a concentration of 5 μg/ml in coating buffer (15 mM Na2CO3, 35 mM NaHCO₃, pH 9.42). Nonspecific binding sites were blocked for 1 h at RT with PBS/0.1% Tween®-20 containing 2% BSA (Sigma-Aldrich, Buchs, Switzerland). Primary antibodies were diluted to the indicated concentrations and incubated 1 h at RT. Binding was determined using either a donkey anti-human IgG Fcγ-specific antibody conjugated with HRP or a goat anti-mouse IgG (H+L)-specific antibody conjugated with HRP, followed by measurement of HRP activity in a standard colorimetric assay. Subsequently, EC₅₀ values were estimated by a non-linear regression using GraphPad Prism software (San Diego, USA).
(§2) To determine the half maximal effective concentration (EC₅₀) of recombinant human-derived HTT antibodies NI-302.35C1 and NI-302.72F10 to soluble and aggregated HTT Exon1 proteins with 21 or 49 polyQ repeats direct ELISA and EC50 determination was performed as described in Example 6, supra.
(§3) To determine the half maximal effective concentration (EC₅₀) of recombinant human-derived HTT antibody NI-302.7D8 to soluble and aggregated HTT Exon1 proteins with 21 or 49 polyQ repeats direct ELISA and EC50 determination was performed as described in Example 6, supra.

[3] = molecular target: GST-HttExon1Q49 (human) (UniProt P42858); test: direct ELISA, coated at 5 µg/ml
[4] = molecular target: HD21: huntingtin Exon1 protein with 21 polyQ repeats, GST tag cleaved off, aggregation reaction (human, UniProt P42858); test: direct ELISA, coated at 5 µg/ml
Description: as §1, §2, §3

[5] = molecular target: T1, BSA-coupled polyP repeat peptide of Htt …; test: direct ELISA on BSA-coupled Htt Exon1 peptides
Description: (§4) To determine the half maximal effective concentration (EC₅₀) of recombinant human-derived HTT antibody NI-302.33C11 to BSA-coupled peptide fragments of the huntingtin Exon 1 direct ELISA with BSA-coupled Htt Exon1 domain peptides was performed.
(§5) In brief, 96 well microplates (Corning) were coated with BSA-coupled synthetic peptides (Schafer-N, Denmark) of the N-terminal amino acid 1-19 ([…], SEQ ID No.: 93), the P-rich domain sequence ([…], SEQ ID No.: 94), the polyP repeat sequence ([…], SEQ ID No.: 95) or the 14 C-terminal amino acids ([…], SEQ ID No.: 96) or with the full lengths GST-HD49 Exon 1 protein at […] in coating buffer (15 mM Na2CO3, 35 mM NaHCO₃, pH 9.42). Non-specific binding sites were blocked for 1 h at RT with PBS/0.1% Tween®-20 containing 2% BSA (Sigma-Aldrich, Buchs, Switzerland). Primary antibodies were diluted to the indicated concentrations and incubated 1 h at RT. Binding was determined using donkey anti-human IgG Fcγ-specific antibody conjugated with HRP, followed by measurement of HRP activity in a standard colorimetric assay and the EC₅₀ values were estimated by a non-linear regression using GraphPad Prism software (San Diego, USA). […]

[6] = molecular target: GST-HttExon1Q49 (human) (UniProt P42858); test: direct ELISA
[7] = molecular target: GST-HttExon1Q21 (human) (UniProt P42858); test: direct ELISA, coated at 5 µg/ml
[8] = molecular target: T2, C-terminal peptide of Htt Exon1 coated …; test: direct ELISA, peptide coated directly
[9] = molecular target: T3, BSA-coupled C-terminal peptide of Htt …; test: direct ELISA on BSA-coupled Htt Exon1 peptides
Description: as §4, §5

GST-HttExon1Q49 (human), sequence (P42858 1-88, change not shown): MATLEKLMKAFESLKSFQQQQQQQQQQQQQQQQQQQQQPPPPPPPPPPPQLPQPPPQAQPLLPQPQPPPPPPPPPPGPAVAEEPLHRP
GST-HttExon1Q21 (human), sequence (P42858 1-88, change not shown): as above

Binder	EC50 [1]	EC50 [2] [nM]	EC50 [3] [nM]	EC50 [6] [nM]	other results
B1	0.2 to 0.4 nM	–	–	–	–
B2	5 nM and 35 nM	–	–	–	fold preference of HD49 vs. HD21 [1]: 5 fold
B3	–	17	6	–	–
B4	–	~0.1	0.1	0.03	EC50 [4]: ~0.1 nM; EC50 [5]: 0.03 nM; EC50 [7]: 0.1 nM
B5	–	~2.7	–	3.2	EC50 [8]: > 100 nM; EC50 [9]: ~0.7 nM

— patent publication US20220332808A1, “HUMAN-DERIVED ANTI-HUNTINGTIN (HTT) ANTIBODIES AND USES THEREOF” (published 2022)
